What was measured:
[1] = molecular target: endogenous neurexin on the surface of immature hippocampal neurons (mouse (endogenous in primary hippocampal neurons)) (UniProt Q9CS84); assay: immunostaining of cells or tissue; cell surface binding assay, apparent Kd: Fc protein at 0-100 nM in HEPES bath solution, 1 h at room temperature, on DIV10 hippocampal neurons transduced with CA10-FLAG lentivirus; Fc signal normalised to neurexin staining
[2] = molecular target: endogenous neurexin on the surface of immature hippocampal neurons (mouse (endogenous in primary hippocampal neurons)) (UniProt Q9CS84); assay: immunostaining of cells or tissue; cell surface binding assay, apparent Kd: Fc protein at 0-100 nM in HEPES bath solution, 1 h at room temperature, on DIV10 hippocampal neurons transduced with control (empty vector) lentivirus; Fc signal normalised to neurexin staining

Chain of UniProt Q9CS84 (Q9CS84 31-1514): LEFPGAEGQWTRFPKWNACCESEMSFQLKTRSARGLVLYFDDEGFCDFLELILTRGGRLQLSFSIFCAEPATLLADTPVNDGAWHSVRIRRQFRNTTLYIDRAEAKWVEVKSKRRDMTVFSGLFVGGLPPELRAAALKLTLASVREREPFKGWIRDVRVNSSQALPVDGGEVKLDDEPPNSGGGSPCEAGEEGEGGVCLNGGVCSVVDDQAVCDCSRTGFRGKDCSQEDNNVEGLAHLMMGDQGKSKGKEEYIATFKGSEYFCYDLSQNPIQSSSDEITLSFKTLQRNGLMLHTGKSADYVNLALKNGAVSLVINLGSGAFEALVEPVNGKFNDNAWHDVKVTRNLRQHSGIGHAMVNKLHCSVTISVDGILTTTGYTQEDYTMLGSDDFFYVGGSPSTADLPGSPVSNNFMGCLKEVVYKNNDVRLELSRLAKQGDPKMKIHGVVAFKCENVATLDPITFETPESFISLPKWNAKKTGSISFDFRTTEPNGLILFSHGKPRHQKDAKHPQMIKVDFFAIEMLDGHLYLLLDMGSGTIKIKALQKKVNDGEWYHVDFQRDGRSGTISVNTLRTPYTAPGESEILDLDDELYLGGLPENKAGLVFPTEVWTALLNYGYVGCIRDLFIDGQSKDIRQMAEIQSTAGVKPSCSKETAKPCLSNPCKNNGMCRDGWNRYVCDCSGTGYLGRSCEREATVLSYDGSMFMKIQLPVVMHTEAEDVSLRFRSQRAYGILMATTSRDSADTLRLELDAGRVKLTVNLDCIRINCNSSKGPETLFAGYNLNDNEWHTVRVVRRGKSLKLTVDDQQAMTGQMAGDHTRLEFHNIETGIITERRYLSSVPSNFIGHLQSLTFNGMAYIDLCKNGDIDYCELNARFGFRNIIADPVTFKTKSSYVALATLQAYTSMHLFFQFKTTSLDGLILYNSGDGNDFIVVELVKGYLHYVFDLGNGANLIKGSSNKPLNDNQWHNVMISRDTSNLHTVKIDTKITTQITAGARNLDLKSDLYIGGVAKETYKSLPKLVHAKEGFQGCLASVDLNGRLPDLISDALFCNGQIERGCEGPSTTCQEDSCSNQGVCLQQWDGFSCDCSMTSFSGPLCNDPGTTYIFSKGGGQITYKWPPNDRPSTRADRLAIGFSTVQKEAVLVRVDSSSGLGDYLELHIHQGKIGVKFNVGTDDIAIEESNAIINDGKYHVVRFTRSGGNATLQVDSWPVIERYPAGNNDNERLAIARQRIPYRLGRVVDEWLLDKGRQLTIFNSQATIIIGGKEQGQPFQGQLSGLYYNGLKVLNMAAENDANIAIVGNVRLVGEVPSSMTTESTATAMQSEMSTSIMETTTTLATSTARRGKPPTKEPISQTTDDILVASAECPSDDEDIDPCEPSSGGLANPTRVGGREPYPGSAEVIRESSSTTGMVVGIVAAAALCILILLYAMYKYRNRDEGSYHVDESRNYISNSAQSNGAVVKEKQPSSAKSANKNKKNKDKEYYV

Molecule: Fc‐tagged Nlgn1 (Fc fusion)
- Kd [1]: 223 nM
- Kd [2]: 186 nM

B1: Fc‐tagged LRRTM2 (Fc fusion)
chain: CPPKCRCEKLLFYCDSQGFHSVPNATDKGSLGLSLRHNHITELERDQFASFSQLTWLHLDHNQISTVKEDAFQGLYKLKELILSSNKIFYLPNTTFTQLINLQNLDLSFNQLSSLHPELFYGLRKLQTLHLRSNSLRTIPVRLFWDCRSLEFLDLSTNRLRSLARNGFAGLIKLRELHLEHNQLTKINFAHFLRLSSLHTLFLQWNKISNLTCGMEWTWGTLEKLDLTGNEIKAIDLTVFETMPNLKILLMDNNKLNSLDSKILNSLRSLTTVGLSGNLWECSARICALASWLGSFQGRWEHSILCHSPDHTQGEDILDAVHGFQLCWNLSTTVTVMATTYRDPTTEYTKRISSSSYHVGDKEIPTTAGIAVTTEEHFPEPDNAIFTQR
- Kd [1]: 35.3 nM
- Kd [2]: 29.5 nM

Source: paper PMC8024894
